Results from the supplement of paper PMC12764529.
± gives the half width of the 95% confidence interval.

Tests used:
[1] = folding stability dG unfold from chymotrypsin proteolysis; higher = more stable
Outline: (§1)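 Bayesian fitting of sequencing counts gave K50 for each design. Unfolding free energy followed by setting this against a sequence-predicted unfolded-state K50 and a shared folded-state K50, either per protease or with trypsin and chymotrypsin combined. The designs, under 80 residues and lacking cysteine, were digested in a PA-tagged cDNA display format at 11 threefold-diluted protease concentrations and without protease, and only those with AlphaFold2 dimer inter-PAE above 15 were kept.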

[2] = folding stability dG unfold from trypsin proteolysis; higher = more stable
Outline: as §1

[3] = folding stability dG unfold (combined trypsin and chymotrypsin); higher = more stable
Outline: as §1

| Sequence | folding stability dG unfold [1] | folding stability dG unfold [2] | folding stability dG unfold [3] |
| --- | --- | --- | --- |
| SAGGSAGGSAGGGNSLSSVRVVPVTLRTSEPLEQDGDPRPREFTETTVVRITETVPPGLSAGGSAGGSAGGS [r10_118_JUSTAS] | 0.57 ± 0.082 kcal/mol | 0.0729 ± 0.18 kcal/mol | 0.356 ± 0.11 kcal/mol |
| SAGGSAGGSAGGGPAPGKGLVVKLEPEEFEFENFRLIVVKAVKDDKLIAEIAYLISPDESAGGSAGGSAGGS [r10_628_TrMRF] | 0.823 ± 0.18 kcal/mol | 1.05 ± 0.12 kcal/mol | 0.904 ± 0.12 kcal/mol |
| SAGGSAGGSAGGGPDAVRQFPPPVNLSVEVTSYTSPSSSLSNGKPEKSTFTTLNPTAGVSAGGSAGGSAGGS [r10_877_JUSTAS] | 0.0744 ± 0.19 kcal/mol | 0.0381 ± 0.13 kcal/mol | 0.139 ± 0.11 kcal/mol |
| SAGGSAGGSAGGGSFVLTRHTRTGLRRRVYFDPETGELTVELETGTESRTTLSPLSPDLSAGGSAGGSAGGS [r10_376_TrMRF] | 0.748 ± 0.064 kcal/mol | -0.215 ± 0.2 kcal/mol | 0.489 ± 0.058 kcal/mol |
| SAGGSAGGSAGGGSITITFKHPDGGEVTIEITPPEPTVRVTVTLPNGEKLEYEFDFVPASAGGSAGGSAGGS [r10_595_TrMRF] | 3.68 ± 0.11 kcal/mol | 3.24 ± 0.22 kcal/mol | 3.58 ± 0.14 kcal/mol |
| SAGGSAGGSAGGGSMKEKKLTVGDKEIIVTYNPETGTATVKSPENSVSVFPLEELKKLLSAGGSAGGSAGGS [r10_1140_JUSTAS] | 0.741 ± 0.1 kcal/mol | -1.25 ± 0.93 kcal/mol | 0.318 ± 0.24 kcal/mol |
| SAGGSAGGSAGGGSMSITVPMSPEEGKKLAEEIKEKLKSEGNPVEVTVTIVSPTDPSLLSSAGGSAGGSAGG [r7_776_JUSTAS] | 0.167 ± 0.066 kcal/mol | 0.627 ± 0.04 kcal/mol | 0.41 ± 0.17 kcal/mol |
| SAGGSAGGSAGGGSMTLTEVFVDPETGTRTVRTTTLYTLPNGTLTSTTTTTVEPLPGELSAGGSAGGSAGGS [r10_1258_JUSTAS] | 1.87 ± 0.025 kcal/mol | 1.51 ± 0.022 kcal/mol | 1.76 ± 0.043 kcal/mol |
| SAGGSAGGSAGGGTAEELAKELEDLGYKVKLEPEGDYLLLTVTDPDNDKPYVILLDPETISAGGSAGGSAGG [r7_0_TrMRF] | 0.776 ± 0.028 kcal/mol | 1.25 ± 0.067 kcal/mol | 0.991 ± 0.035 kcal/mol |
| SAGGSAGGSAGGGVEVLSAERRRIPETGLVLVVIREKEPLKPIVVLMPEEDAVVFLKHFSAGGSAGGSAGGS [r10_988_TrMRF] | 0.92 ± 0.1 kcal/mol | 0.14 ± 0.094 kcal/mol | 0.703 ± 0.091 kcal/mol |
| SAGGSAGGSAGGGVVTLPDLKGLSEEELKALAEEIAKKLGLENVPLKLEFGEDGNLTLVLSAGGSAGGSAGG [r7_810_JUSTAS] | 1.24 ± 0.054 kcal/mol | 2.15 ± 0.077 kcal/mol | 1.74 ± 0.11 kcal/mol |
| SAGGSAGGSAGGHYIRAEIEIKYEHPGNGQEQTMTIPIEIPIPPPPPVSAEDRAKQNGIGSAGGSAGGSAGG [r7_79_TrROS] | 0.855 ± 0.041 kcal/mol | 0.318 ± 0.084 kcal/mol | 0.669 ± 0.065 kcal/mol |
| SAGGSAGGSAGGIGPEIVEAALIEAKEKVPEDEEVEILVRDPVTGEVLRLRIYPDRVELGSAGGSAGGSAGG [r7_44_TrMRF] | 0.785 ± 0.14 kcal/mol | 0.384 ± 0.11 kcal/mol | 0.698 ± 0.19 kcal/mol |
| SAGGSAGGSAGGIKDVKITEFERHPENNWYEVKISIPNGKPVEIPMNPGQSAEDILDQISAGGSAGGSAGGS [r10_984_TrROS] | 0.651 ± 0.045 kcal/mol | -0.418 ± 0.19 kcal/mol | 0.421 ± 0.2 kcal/mol |
| SAGGSAGGSAGGIKLENPNGFEVYKSPDSMVEIEFVNPNGKPMRYIIQVDEPGEIKPYPVSAGGSAGGSAGG [r7_423_TrROS] | 0.0804 ± 0.23 kcal/mol | 0.0628 ± 0.13 kcal/mol | 0.0566 ± 0.2 kcal/mol |
| SAGGSAGGSAGGIYPGPGNLLYFTGEDDYVKVIKITPPDNTIKIDIEIVPKGEATKIPYSAGGSAGGSAGGS [r10_257_TrMRF] | -0.331 ± 0.28 kcal/mol | 0.161 ± 0.059 kcal/mol | -0.00595 ± 0.097 kcal/mol |
| SAGGSAGGSAGGKELEIVLYDKETNVLVTAKVRMENGKLTITEVKVEKVKPPKLPPGVKPSAGGSAGGSAGG [r7_276_TrROS_Hall] | 2.44 ± 0.071 kcal/mol | 1.48 ± 0.06 kcal/mol | 2.14 ± 0.079 kcal/mol |
| SAGGSAGGSAGGKHKIPITNVHVSPPNGYIHVTIRFPGDGKPIEIHFPVPPGEPITIEISAGGSAGGSAGGS [r10_940_TrROS] | 3.53 ± 0.27 kcal/mol | 2.28 ± 0.14 kcal/mol | 2.74 ± 0.2 kcal/mol |

| Sequence | folding stability dG unfold [1] | folding stability dG unfold [2] | folding stability dG unfold [3] |
| --- | --- | --- | --- |
| SAGGSAGGSAGGKIDRIQLHYNPGGNVYFRIYGPNGKPRYFMMPAEDLEDFPNAPIEIYPSAGGSAGGSAGG [r7_238_TrROS] | 0.847 ± 0.11 kcal/mol | 0.648 ± 0.04 kcal/mol | 0.864 ± 0.096 kcal/mol |
| SAGGSAGGSAGGKIIVVKDKETGKYRVIIVDKKTKKTIVVEVDPNTTLEEALKKAKELLKSAGGSAGGSAGG [r7_138_TrROS_Hall] | 3.97 ± 0.12 kcal/mol | 3.05 ± 0.12 kcal/mol | 3.52 ± 0.24 kcal/mol |
| SAGGSAGGSAGGKIKDIDVQQMPDGWYWVEIEIPDPNGEEVKITIMFPPGHSVDDALDQLSAGGSAGGSAGG [r7_54_TrROS] | 1.03 ± 0.093 kcal/mol | 1.01 ± 0.069 kcal/mol | 1.04 ± 0.22 kcal/mol |
| SAGGSAGGSAGGKIKILKKNKTKEEIKKELAEKYNVKKIEIKPIKGNTYLVEIEVEPEESAGGSAGGSAGGS [r10_1219_TrMRF] | 0.634 ± 0.22 kcal/mol | -0.364 ± 0.24 kcal/mol | 0.292 ± 0.25 kcal/mol |
| SAGGSAGGSAGGKIKLTVTVDADGNATVTLEIEVESPEDKPFTIRLTLTFPLKDGESLTSAGGSAGGSAGGS [r10_763_TrMRF] | 3.88 ± 0.12 kcal/mol | 3.9 ± 0.29 kcal/mol | 3.82 ± 0.17 kcal/mol |
| SAGGSAGGSAGGKIKPGQTVIFIELKITKQRDGPDGKRYMEFEIERIDIFRIPPGDNILSAGGSAGGSAGGS [r10_826_TrROS] | 3.18 ± 0.13 kcal/mol | 2.55 ± 0.068 kcal/mol | 3.03 ± 0.13 kcal/mol |
| SAGGSAGGSAGGKILVITAKIEDIPEIIEAAKKLGIDSVIIDIPETKEKIIITKDSVKLISAGGSAGGSAGG [r7_564_TrMRF] | 1.76 ± 0.089 kcal/mol | 1.54 ± 0.057 kcal/mol | 1.63 ± 0.14 kcal/mol |
| SAGGSAGGSAGGKITFAPKTTLLLTATIPVTVYSLHPDGTLTTETRSATITFTIPPELLSAGGSAGGSAGGS [r10_383_TrMRF] | 4.1 ± 0.074 kcal/mol | 2.4 ± 0.086 kcal/mol | 3.64 ± 0.12 kcal/mol |
| SAGGSAGGSAGGKIYKKKNGTYKIIIYDKKTKKVYEIEIPVSKEDKPKILKEAKELAKKSAGGSAGGSAGGS [r10_379_TrROS_Hall] | 1.49 ± 0.096 kcal/mol | 0.609 ± 0.11 kcal/mol | 1.17 ± 0.084 kcal/mol |
| SAGGSAGGSAGGKKIEIPGFEITKVEPLENDSVIAEGKFKNGKKYRILFLPNKVYINDESAGGSAGGSAGGS [r10_312_TrMRF] | 0.44 ± 0.2 kcal/mol | 0.335 ± 0.16 kcal/mol | 0.357 ± 0.16 kcal/mol |
| SAGGSAGGSAGGKKIKIPKKVKVKVVKKKDGKLLVYLEKTGKVIELPVEDLKNITAEDLSAGGSAGGSAGGS [r10_709_TrROS_Hall] | -0.63 ± 0.3 kcal/mol | 0.976 ± 0.038 kcal/mol | 0.408 ± 0.094 kcal/mol |
| SAGGSAGGSAGGKKITIVMSAEEAEALAKALEDAGIDIDNLKIEVVKVEFPPALPAEDKSAGGSAGGSAGGS [r10_602_TrROS_Hall] | 1.8 ± 0.051 kcal/mol | 1.2 ± 0.029 kcal/mol | 1.57 ± 0.074 kcal/mol |
| SAGGSAGGSAGGKKKFGFLILVKNKDDEKLYLVEVPEELSLEEFLPDQEIDEEVIKKAIGSAGGSAGGSAGG [r17_412_TrMRF] | 0.665 ± 0.27 kcal/mol | 0.823 ± 0.082 kcal/mol | 0.724 ± 0.18 kcal/mol |
| SAGGSAGGSAGGKKKIKVELEVKEDGTIRMKATTEDGEEIETEIKVEKVEVTVFLPPEKSAGGSAGGSAGGS [r10_237_TrROS_Hall] | 1.18 ± 0.23 kcal/mol | 1.74 ± 0.26 kcal/mol | 1.55 ± 0.28 kcal/mol |
| SAGGSAGGSAGGKKKKVKKKVTITIKLSAEEVAKLLKDLYPEKNIKIEENEDGSLSVTFTSAGGSAGGSAGG [r7_670_TrROS_Hall] | 2.39 ± 0.041 kcal/mol | 2 ± 0.098 kcal/mol | 2.26 ± 0.11 kcal/mol |
| SAGGSAGGSAGGKKLRIKVKNKKTGKEIEIEIDVEDKTIEEIAKELAKKLNFEVTEIEPVSAGGSAGGSAGG [r7_590_TrROS_Hall] | 2.9 ± 0.12 kcal/mol | 2.2 ± 0.18 kcal/mol | 2.74 ± 0.24 kcal/mol |
| SAGGSAGGSAGGKKLTFKAEIVSEEEIEINGKKYRIFKVKVTLPDGSKLTLTVIVELDDLSAGGSAGGSAGG [r7_846_TrROS_Hall] | 4.22 ± 0.056 kcal/mol | 2.83 ± 0.036 kcal/mol | 3.84 ± 0.096 kcal/mol |
| SAGGSAGGSAGGKKPITLTVLVTDPDGYLLQRTTTLTLDEDTNELTATTTVTRIPLEDLSAGGSAGGSAGGS [r10_1225_TrROS_Hall] | 1.97 ± 0.088 kcal/mol | 0.684 ± 0.11 kcal/mol | 1.6 ± 0.13 kcal/mol |
